Consider four molecules from publication doi:10.1101/2020.05.01.070730 (bioRxiv, 2020).

In one series the target is T1, MutS R272A (Pseudomonas aeruginosa, UniProt Q9HY08 1-855, R272A).
T1 sequence: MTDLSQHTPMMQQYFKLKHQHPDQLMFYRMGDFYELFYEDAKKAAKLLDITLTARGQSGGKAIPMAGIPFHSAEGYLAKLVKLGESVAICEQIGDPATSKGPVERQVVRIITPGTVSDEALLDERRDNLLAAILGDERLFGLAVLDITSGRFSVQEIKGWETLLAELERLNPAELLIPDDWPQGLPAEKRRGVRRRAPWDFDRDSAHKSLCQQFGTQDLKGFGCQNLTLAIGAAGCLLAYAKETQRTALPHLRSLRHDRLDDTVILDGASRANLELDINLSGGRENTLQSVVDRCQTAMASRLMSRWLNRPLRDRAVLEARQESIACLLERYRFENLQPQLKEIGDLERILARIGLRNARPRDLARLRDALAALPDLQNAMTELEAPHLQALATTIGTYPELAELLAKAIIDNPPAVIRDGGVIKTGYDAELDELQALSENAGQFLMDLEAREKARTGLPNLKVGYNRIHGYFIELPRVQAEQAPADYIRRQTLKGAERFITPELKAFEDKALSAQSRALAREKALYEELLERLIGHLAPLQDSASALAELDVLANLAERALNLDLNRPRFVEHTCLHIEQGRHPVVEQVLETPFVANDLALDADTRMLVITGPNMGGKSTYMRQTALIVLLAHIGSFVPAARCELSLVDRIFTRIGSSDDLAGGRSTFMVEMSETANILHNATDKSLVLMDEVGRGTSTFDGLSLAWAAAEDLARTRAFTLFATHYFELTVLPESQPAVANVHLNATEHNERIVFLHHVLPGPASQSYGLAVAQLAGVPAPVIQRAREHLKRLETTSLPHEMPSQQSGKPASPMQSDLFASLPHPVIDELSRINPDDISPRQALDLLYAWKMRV
The series is described as follows: EMSA. For orientation: Mobility shift assays separate free from complexed probe on a gel.

The next series has as its target T2, MutS E. coli (Escherichia coli, UniProt P23909 1-853).
T2 sequence: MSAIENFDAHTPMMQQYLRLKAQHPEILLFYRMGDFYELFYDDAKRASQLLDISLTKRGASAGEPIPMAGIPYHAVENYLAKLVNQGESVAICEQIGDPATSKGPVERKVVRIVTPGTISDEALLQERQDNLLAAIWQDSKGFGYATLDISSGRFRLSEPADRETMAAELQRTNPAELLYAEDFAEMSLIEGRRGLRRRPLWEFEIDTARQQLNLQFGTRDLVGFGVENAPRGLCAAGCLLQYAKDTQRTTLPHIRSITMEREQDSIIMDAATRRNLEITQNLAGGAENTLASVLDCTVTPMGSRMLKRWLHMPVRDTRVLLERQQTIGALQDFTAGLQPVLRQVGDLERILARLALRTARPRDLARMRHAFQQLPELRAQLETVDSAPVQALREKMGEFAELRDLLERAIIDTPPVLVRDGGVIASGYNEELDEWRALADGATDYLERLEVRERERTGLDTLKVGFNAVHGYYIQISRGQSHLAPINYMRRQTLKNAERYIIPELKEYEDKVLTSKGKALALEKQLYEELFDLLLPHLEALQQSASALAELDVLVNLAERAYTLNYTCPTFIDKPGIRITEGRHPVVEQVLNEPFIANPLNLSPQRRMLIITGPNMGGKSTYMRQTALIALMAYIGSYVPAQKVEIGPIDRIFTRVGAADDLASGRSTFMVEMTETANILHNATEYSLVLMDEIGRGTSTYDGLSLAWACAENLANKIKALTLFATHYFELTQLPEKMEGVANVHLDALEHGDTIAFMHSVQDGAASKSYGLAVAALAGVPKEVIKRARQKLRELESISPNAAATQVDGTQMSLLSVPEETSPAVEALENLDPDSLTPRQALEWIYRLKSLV
The series is described as follows: native PAGE shift.

Another series concerns the target T3, MutS (Pseudomonas aeruginosa, UniProt Q9HY08 1-855).
T3 sequence: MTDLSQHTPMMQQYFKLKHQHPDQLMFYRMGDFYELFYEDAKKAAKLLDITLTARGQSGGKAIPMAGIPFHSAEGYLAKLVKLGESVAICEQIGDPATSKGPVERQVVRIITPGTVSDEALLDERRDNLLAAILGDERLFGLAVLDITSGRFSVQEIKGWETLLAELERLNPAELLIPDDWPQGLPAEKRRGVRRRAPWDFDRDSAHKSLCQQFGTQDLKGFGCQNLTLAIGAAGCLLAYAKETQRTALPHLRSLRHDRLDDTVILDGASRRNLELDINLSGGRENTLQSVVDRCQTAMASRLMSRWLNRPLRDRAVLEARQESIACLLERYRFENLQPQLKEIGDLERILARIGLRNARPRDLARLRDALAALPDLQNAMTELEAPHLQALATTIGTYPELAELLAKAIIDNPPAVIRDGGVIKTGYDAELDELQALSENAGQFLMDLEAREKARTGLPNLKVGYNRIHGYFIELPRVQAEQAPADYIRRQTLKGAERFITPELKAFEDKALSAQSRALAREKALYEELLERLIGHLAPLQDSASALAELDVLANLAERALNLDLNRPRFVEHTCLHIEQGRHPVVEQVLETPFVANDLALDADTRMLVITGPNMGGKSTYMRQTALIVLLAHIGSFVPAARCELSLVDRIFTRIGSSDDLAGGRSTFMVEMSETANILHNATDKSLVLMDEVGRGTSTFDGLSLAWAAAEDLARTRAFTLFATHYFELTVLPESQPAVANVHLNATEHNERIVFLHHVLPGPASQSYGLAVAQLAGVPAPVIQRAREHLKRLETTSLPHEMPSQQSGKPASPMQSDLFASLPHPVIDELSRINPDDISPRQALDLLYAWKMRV
Description: SPR. Background: In SPR one partner is held on a chip, and binding of the other changes the refractive index at the surface.

B1: GT-pDNA (GT 8 nt from 3'-OH) (dsDNA)
DNA 1: ATGTGAATCAGTATGGTTGCTATCTGC
DNA 2: ATTTCCTTCAGCAGATAGTAACCATACTGATTCACAT
In general, Kd refers to a measure of binding affinity in units of concentration. Higher therefore signals lower affinity. B1: the dissociation constant Kd in the series with MutS R272A turned out to be 49.3 ± 1 nM. Also, the binding result in the series with MutS E. coli is “binds”.

B2: pDNA (AT) (dsDNA)
DNA 1: ATGTGAATCAGTATGGTTACTATCTGC
DNA 2: ATTTCCTTCAGCAGATAGTAACCATACTGATTCACAT
Consider B2, for which binding with MutS R272A was characterised by a dissociation constant (Kd) of 143 ± 8.6 nM.

B3: dsDNA (dsDNA)
DNA 1: ATGTGAATCAGTATGGTTACTATCTGCTGAAGGAAAT
DNA 2: ATTTCCTTCAGCAGATAGTAACCATACTGATTCACAT
In the series with MutS R272A, B3 yielded a Kd of 309 ± 20.9 nM.

B4: GT-dsDNA (GT 18 nt from 3' end) (dsDNA)
DNA 1: ATGTGAATCAGTATGGTTGCTATCTGCTGAAGGAAAT
DNA 2: ATTTCCTTCAGCAGATAGTAACCATACTGATTCACAT
For the molecule B4, the Kd was found to be 118 ± 8.9 nM with MutS and 38.2 ± 0.7 nM with MutS R272A.
